Assays:
Details in all cases: FMN input: 0 or 200 uM; Eterna round: R93 (includes R88 designs)
[1] = tested on: MS2 coat protein; test: apparent KD of MS2 coat protein, switch ON state; designed switch direction (-1 OFF switch, 1 ON switch): 1; higher = weaker reporter binding
Procedure, shortened: (§1)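 Values are apparent KD, taken as the median for each design of fits to normalised binding curves from individual clusters. The designed RNA switches were transcribed on-chip from Illumina sequencing clusters and exposed to SNAP-549-labelled MS2 coat protein at twofold increasing amounts from 0.7 or 1.5 nM to 3 µM. Titration used 100 mM Tris-HCl pH 7.5, 80 mM KCl and 4 mM MgCl2, without or with constant ligand.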

[2] = tested on: MS2 coat protein; test: apparent KD of MS2 coat protein, switch OFF state (with FMN for OFF switches, without FMN for ON switches); designed switch direction (-1 OFF switch, 1 ON switch): 1; higher = weaker reporter binding
Procedure, shortened: as §1

[3] = tested on: MS2 coat protein; test: apparent KD of MS2 coat protein, switch ON state; designed switch direction (-1 OFF switch, 1 ON switch): -1; higher = weaker reporter binding
Procedure, shortened: as §1

[4] = tested on: MS2 coat protein; test: apparent KD of MS2 coat protein, switch OFF state (with FMN for OFF switches, without FMN for ON switches); designed switch direction (-1 OFF switch, 1 ON switch): -1; higher = weaker reporter binding
Procedure, shortened: as §1

Row | Sequence | apparent KD of MS2 coat protein [1] | apparent KD of MS2 coat protein [2] | apparent KD of MS2 coat protein [3] | apparent KD of MS2 coat protein [4]
1 | AAAAAAAAAACGCAGGAUAUCCAAAAAAAAACAUGAGGAUCACCCAUGUAAAAAAAAAAAAAAUGGGAGAAGGGUGAAAAAAAAAA [Louisiana 6 - Jieux - Same State 2] | 0.0499 µM | 0.114 µM |  | 
2 | AAAAAAAAAAGACAGGAUAUACAAUAUAUUACAUGAGGAUCACCCAUGUUUUUUUUUUAAUUAAAGUAGAAGGGUCAAAAAAAAAA [SS 2.1] | 0.0256 µM | 0.0303 µM |  | 
3 | AAAAAAAAAAGACAGGAUAUCCAAAAAAAAACAUGAGGAUCACCCAUGUAAAAAAAAAAAAAGUGGGAGAAGGGUCAAAAAAAAAA [Louisiana 4 - Jieux - Same State 2] | 0.0249 µM | 0.0384 µM |  | 
4 | CCUGUGUGAGGAUAUGGUGUAAAAAAAAAAAAAUAGCUCCUCCAGAAGGCACAUGAGGAUCACCCAUGUCGUGG [Jolly's Folly 18 - Jieux - Exclusion 4] |  |  | 0.0329 µM | 0.0658 µM
5 | CGCAAGUCAGGAUAUUCGACAGGUAAAUCAGUAGAUCAGAAGAAGAAGGGACAUGAGGAUCACCCAUGUAAGUA [JR_Exc004_Sub405] |  |  | 0.0411 µM | 0.0243 µM
6 | CUCAAGUUAGGAUAUCCAAGAAAAGAAGAGAAAGAAAAGAAGGAGAAGGAACAUGAGGAUCACCCAUGUAAGAA [EteRNA is fun!] |  |  | 0.0328 µM | 0.0385 µM
7 | CUCAUGUCAGGAUAUGUAGCAUGAUACGAAAGUAUCAUGCUACAGAAGGGACAUGAGGAUCACCCAUGUCCAAA [Ex4: 944] |  |  | 0.119 µM | 0.0377 µM
8 | CUCAUGUGAGGAUAUGUACAGAAAAAAAUGGGUGAAACUGUACAGAAGGCACAUGAGGAUCACCCAUGUGCAAA [EX4 377: S S Pseudoknot 2] |  |  | 0.0191 µM | 0.0214 µM
9 | CUCUAGUAAGGAUAUGGAAGAAAAGAAAAGAAAGAAAAGAACCAGAAGGUACAUGAGGAUCACCCAUGUAAGAA [EteRNA is fun!] |  |  | 0.0489 µM | 0.0234 µM
10 | CUCUAGUGAGGAUAUACAAGAAAAGAAGAGAAAGAAAAGAAGUAGAAGGCACAUGAGGAUCACCCAUGUAAGAA [EteRNA is fun!] |  |  | 0.0247 µM | 0.0336 µM
11 | CUCUUGUCAGGAUAUGAAAGAAAAGAAGAGAAAGAAAAGAAUCAGAAGGGACAUGAGGAUCACCCAUGUAAGAA [EteRNA is fun!] |  |  | 0.0436 µM | 0.0779 µM
12 | GAAAAACAUGAGGAUCACCCAUGUAAGGAUAUGCUGAAAAAACACUGGAAACAGUGCAGCAGAAGGUACAAAAG [Mat - Exclusion 1 - Eli mod - D100] |  |  | 0.0203 µM | 0.0733 µM
13 | GAAAAACAUGAGGAUCACCCAUGUCAGGAUAUGUAGAAAAAGAAAAAAAGAAAAGAAAACAGAAGGGACAAAAG [Mat - Same state - Mayanna Mod - D105] |  |  | 0.0326 µM | 0.0385 µM
14 | GAAAAGAAAGGAUAUAAAACAGAGGAUAUACAUAAAUAAAAACAUGAGGAUCACCCAUGUAGAAGGCUGAAAAG [Meechl Ex2 R2 m2] |  |  | 0.0332 µM | 0.0205 µM
15 | GAAAAGUCAGGAUAUGCAGAAAAAAAAACGAAAAAAAAACUGCAGAAGGGACAUGAGGAUCACCCAUGUUAAAG [Mat - Exclusion 4 - Mayanna - D128] |  |  | 0.0509 µM | 0.0331 µM
16 | GAAAUACGAGGAUAUACAUGAGGAUCACCCAUGUCAAAAAAUGACUACACAAAAGAAAGUAGAAGGCGUAAAAG [Mat - Exclusion 3 - Mayanna mod - D128] |  |  | 0.0286 µM | 0.0384 µM
17 | GAAGAACAUGAGGAUCACCCAUGUCAGGAUAUGCACUACGGAAUAAUAAGUAAUGGAAGUAGAAGGGACAAGAA [Ex 1 May 53] |  |  | 0.0262 µM | 0.0264 µM
18 | GCUUGGGAAGGAUAUACAUGAGGAUCACCCAUGUGAGAGAAAAAAGUGAGAAAGAAAAGUAGAAGGUCCUGAGG [salish99-ex3-108] |  |  | 0.0712 µM | 0.152 µM
19 | GGAAAGUGAGGAUAUGCAUAACAAAUACAAAGAGAAACAAAGCAGAAGGCACAUGAGGAUCACCCAUGUAAACA [Exclusion 4 Float] |  |  | 0.0273 µM | 0.0227 µM

Row | Sequence | apparent KD of MS2 coat protein [1] | apparent KD of MS2 coat protein [2] | apparent KD of MS2 coat protein [3] | apparent KD of MS2 coat protein [4]
20 | GGGAUGUCAGGAUAUGUGUAAAGAAUAAAACAAAUAACAACACAGAAGGGACAUGAGGAUCACCCAUGUUACCC [May 39] |  |  | 0.017 µM | 0.0154 µM
21 | GGGCCACAUGAGGAUCACCCAUGUAAGGAUAUGCUAGGGAGGGAAAAAAUUUCGCCAGGCAGAAGGUACUAAAG [Janelle Amethyst 18 Mod 7 - Jieux - Exclusion 1] |  |  | 0.0236 µM | 0.0314 µM
22 | GGGUAACAUGAGGAUCACCCAUGUGAGGAUAUUCUAGGGAUGGAAGCUCGGCCGGCCAGGAGAAGGUACUAAAG [Janelle Amethyst 18 Mod 20 - Jieux - Exclusion 1] |  |  | 0.0263 µM | 0.0368 µM
23 | GGUUGGCGAGGAUAUACAUGAGGAUCACCCAUGUGAGAGAAAAAAGUGAGAAAGAAAAGUAGAAGGCGCUGACU [salish99-ex3-04] |  |  | 0.0545 µM | 0.262 µM
24 | GGUUGGCGAGGAUAUACAUGAGGAUCACCCAUGUGAGAGAAAAAAGUGAGAAAGAAAAGUAGAAGGUGUUGACG [salish99-ex3-70] |  |  | 0.0554 µM | 0.0567 µM
25 | GGUUGGCGAGGAUAUACAUGAGGAUCACCCAUGUGAGAGAAAAAAGUGAGGAGGGAAAGUAGAAGGCGCUGACG [salish99-ex3-16] |  |  | 0.0273 µM | 0.0419 µM
26 | GGUUGGCGAGGAUAUACAUGAGGAUCACCCAUGUGAGAGAUAAAAGUGAGAAAGAAAAGUAGAAGGCGCUGACG [salish99-ex3-45] |  |  | 0.0292 µM | 0.065 µM
27 | GGUUGUGUAGGAUAUACAUGAGGAUCACCCAUGUGAGAGAAAAAAGUGAGAAAGAAAAGUAGAAGGACGUGACG [salish99-ex3-72] |  |  | 0.0453 µM | 0.0427 µM
28 | GUCCGACAUGAGGAUCACCCAUGUAAGGAUAUGUAUCCUUCGGCCCGAACCAGAGGAAGCAGAAGGUACAGGGA [Oneserqu] |  |  | 0.0248 µM | 0.0209 µM
29 | GUCCUACAUGAGGAUCACCCAUGUCAGGAUAUGUAGCGUCCGAGCGAAAAGGCCCGGAGCAGAAGGGACAGGUG [Maisbia] |  |  | 0.0161 µM | 0.0201 µM
30 | GUGUACAGAGGAUAUACAUGAGCAUGGAAACAUGCAGGAUCACAUGAGGAUCACCCAUGUAGAAGGCUGUACAC [Ex2: 732] |  |  | 0.0351 µM | 0.012 µM
31 | UAAAAGUGAGGAUAUUCGGAUAGGAAAACGAAAACCUAUCCGAAGAAGGCACAUGAGGAUCACCCAUGUGGAAU [Mat - Exaclusion 4 - Eli mod - D48] |  |  | 0.0313 µM | 0.036 µM
32 | UAAAGACAUGAGGAUCACCCAUGUGAGGAUAUCGGAGACAACAGAACAUCAAGUACAAUGAGAAGGCACAGAAA [JR_Exc001_Sub018] |  |  | 0.0406 µM | 0.0471 µM
33 | UACUUACAUGAGGAUCACCCAUGUCAGGAUAUGCGCUCAGAGUAUAUAUAAGAUUCAAGCAGAAGGGACACUAA [JR_Exc001_Sub204] |  |  | 0.0348 µM | 0.0372 µM
34 | UCACACCUAGGAUAUACAUGAGGAUCACCCAUGUGGCACUCCGCAGGCAUUGCUCCCAGUAGAAGGAGGACACG [Veterexe] |  |  | 0.0189 µM | 0.0238 µM
35 | UCCGGAUUAGGAUAUACAUGAGGAUCACCCAUGUGACAAAAAUAUUUUACAAAACCAUGUAGAAGGAAUCCGGA [E3-1.3] |  |  | 0.125 µM | 0.408 µM
36 | UCCUCACAUGAGGAUCACCCAUGUCAGGAUAUCUCACAGCGAAAGAAUAAAGGCUGCAAGAGAAGGGACACAAA [Raisa] |  |  | 0.0227 µM | 0.0442 µM
37 | UCCUUACAUGAGGAUCACCCAUGUUAGGAUAUCUCGCUUGCGCAAUCACAGCGCAAGCAGAGAAGGGACGCGGG [Ledige] |  |  | 0.0228 µM | 0.0291 µM
38 | UUUAAGUGAGGAUAUACGAAUAGUAAGUAAGUAUAACAGACGUAGAAGGCACAUGAGGAUCACCCAUGUAAAUA [JR_Exc004_Sub305] |  |  | 0.0244 µM | 0.0186 µM

Reference: the supplement of paper PMC9170038
